Reference: patent US20040023255

Test system: microtubules

HsKip3d M1-S357 protein was tested, and the “Km for microtubule stimulation (coupled PK/LDH microtubule-stimulated ATPase assay, Michaelis-Menten fit)” value was “a Km for microtubule stimulation of 0.2 µM”.
